B1: HSP90AB1 (parent)
chain: QVANSAFVERVRKRGFEVVYMTEP

Variants of: B1
Assay: protein stability index of a GFP-peptide fusion (GPS, HEK-293T) (PSI 1-6); higher = more stable
Details: c terminus: a fixed tail appended
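Also: lentivirally expressed fusions sorted by FACS into six bins by GFP to DsRed ratio, PSI derived from sequencing read proportions per bin multiplied by bin number.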

Row | Variant | protein stability index
1 | V8P | 2.48
2 | V8K | 2.54
3 | V8N | 2.8
4 | V8Q | 2.2
5 | V8M | 2.49
6 | V8Y | 2.7
7 | V8F | 1.8
8 | V8W | 1.47
9 | V8S | 2.54
10 | V8H | 2.47
11 | V8C | 2.92
12 | V8G | 2.91
13 | V8D | 3.46
14 | V8R | 2.07
15 | V8L | 1.96
16 | V8T | 2.52
17 | V8A | 2.33
18 | V8I | 1.88
19 | S5Y | 2.17
20 | S5T | 2.46
21 | S5M | 2.2
22 | S5K | 1.71
23 | S5H | 2.29
24 | S5R | 1.77

Row | Variant | protein stability index
25 | S5W | 1.97
26 | S5P | 2.44
27 | S5A | 2.24
28 | S5F | 1.76
29 | S5L | 2.12
30 | S5D | 2.59
31 | S5N | 2.26
32 | S5V | 2.22
33 | S5G | 2.02
34 | S5E | 2
35 | K13F | 1.58
36 | K13R | 2.43
37 | K13M | 1.53
38 | K13H | 1.95
39 | K13C | 1.61
40 | K13P | 2.63
41 | K13T | 2.35
42 | K13I | 1.51
43 | K13Q | 2.2
44 | K13V | 1.54
45 | K13S | 2.83
46 | K13N | 2.24
47 | K13L | 2.49
48 | K13A | 2.42

Row | Variant | protein stability index
49 | K13Y | 1.75
50 | K13G | 1.34
51 | K13D | 2.67
52 | K13W | 2.48
53 | A6R | 2.71
54 | A6I | 1.68
55 | A6T | 2.69
56 | A6L | 2.09
57 | A6G | 2.19
58 | A6P | 2.81
59 | A6Y | 1.55
60 | A6K | 2.32
61 | A6E | 2.86
62 | A6D | 2.67
63 | A6H | 2.43
64 | A6W | 1.55
65 | A6M | 2.54
66 | A6V | 1.57
67 | A6N | 2.11
68 | A6S | 2.61
69 | A6F | 1.73
70 | A6C | 1.55
71 | V2Q | 2.58
72 | V2G | 2.59

Row | Variant | protein stability index
73 | V2R | 2.6
74 | V2P | 2.85
75 | V2L | 2.01
76 | V2I | 2.52
77 | V2M | 2.18
78 | V2C | 1.74
79 | V2F | 2.47
80 | V2W | 1.94
81 | V2H | 2.49
82 | V2S | 2.69
83 | V2Y | 2.3
84 | V2T | 2.41
85 | V2N | 2.75
86 | V2A | 2.87
87 | V2D | 3.15
88 | V11W | 1.34
89 | V11K | 1.85
90 | V11P | 2.48
91 | V11H | 2.73
92 | V11L | 1.69
93 | V11A | 2.62
94 | V11Q | 3.2
95 | V11F | 2.09
96 | V11R | 2.43

Row | Variant | protein stability index
97 | V11T | 2.83
98 | V11E | 3.58
99 | V11I | 1.79
100 | V11G | 2.56
101 | V11S | 2.61
102 | V11Y | 2.17
103 | V11M | 2.11
104 | R10Y | 1.58
105 | R10I | 1.94
106 | R10N | 2.99
107 | R10M | 1.54
108 | R10G | 2.17
109 | R10E | 2.28
110 | R10F | 1.29
111 | R10V | 1.76
112 | R10Q | 2.17
113 | R10H | 2.33
114 | R10A | 2.18
115 | R10D | 2.58
116 | R10L | 1.81
117 | R10C | 2.05
118 | R10P | 2.57
119 | R10T | 2.29
120 | A3T | 2.93

Row | Variant | protein stability index
121 | A3S | 2.74
122 | A3W | 1.91
123 | A3E | 2.69
124 | A3I | 2.06
125 | A3D | 2.11
126 | A3L | 1.85
127 | A3V | 2.43
128 | A3K | 2.81
129 | A3C | 2.01
130 | A3H | 2.38
131 | A3G | 2.28
132 | A3M | 2.26
133 | A3Y | 2.35
134 | A3F | 1.87
135 | A3Q | 2.46
136 | A3P | 2.69
137 | G15L | 1.83
138 | G15A | 2.01
139 | G15F | 2.21
140 | G15M | 2.07
141 | G15E | 2.56
142 | G15T | 2.72
143 | G15Y | 1.61
144 | G15N | 2.61

Row | Variant | protein stability index
145 | G15R | 1.98
146 | G15H | 1.66
147 | G15D | 3.3
148 | G15S | 2.38
149 | G15I | 1.81
150 | G15P | 2.75
151 | G15V | 2.19
152 | G15W | 1.91
153 | G15K | 2.12
154 | G15C | 1.79
155 | F7P | 3.28
156 | F7K | 3.03
157 | F7Y | 2.38
158 | F7M | 2.35
159 | F7V | 2.84
160 | F7E | 3.48
161 | F7H | 3.24
162 | F7W | 1.99
163 | F7D | 3.56
164 | F7S | 2.32
165 | F7T | 3.42
166 | F7R | 2.75
167 | E17C | 2.44

Source: the supplement of paper PMC10567573
